Measured values: patent publication US20250264476A1, “AMINO ACID-SPECIFIC BINDER AND SELECTIVELY IDENTIFYING AN AMINO ACID” (Government of the United States of America, as represented …, priority 2021, published 2025)

Tested on: biotinylated peptides that vary only by their N-terminal amino acid
Assay: Bio-layer interferometry (BLI) binding of ClpS to biotinylated peptides on streptavidin probe
Conditions: ClpS at 0.312-40 μM in 20 mM HEPES pH 8, 150 mM KCl, 0.1% BSA, 0.05% Tween-20
Description: The initial binding activity of T. elongatus ClpS2 was characterized using bio-laver interferometry (BLI) In BLI, a functionalized fiber-optic probe is placed in a solution of analyte and the accumulation of analyte on the functional group of the probe is measured by changes in reflected light within the probe. A BLI probe functionalized with streptavidin is allowed to accumulate biotinylated peptide. Probes with peptide are then placed in solutions of ClpS of varying concentration and allowed to equilibrate. BLI response is then graphed to concentration to establish a binding curve. Dilutions of T. elongatus ClpS2 were made in 20 mM HEPES pH 8, 150 mM KCl, 0.1% BSA, and 0.05% Tween-20 at concentrations of 0.312, 0.625, 1.25, 2.5, 5, 10, 20, and 40 μM.
With regard to peptides, all peptides are named by indicating the first two residues, with the full sequence available in Table 3. All of the peptides had the same sequence for the C-terminal end of the peptide, XXAVECK (Sequence ID No. 18), where the N-terminal amino acids are varied. The peptides also contained a biotin linked via the lysine side chain on the C-terminal residue. X1G2 peptides started from a lyophilized form. Peptides were resuspended in 1×DPBS and diluted to the appropriate concentration into the experiment buffer. […]

Chain of biotinylated peptides that vary only by their N-terminal amino acid (as listed by the source): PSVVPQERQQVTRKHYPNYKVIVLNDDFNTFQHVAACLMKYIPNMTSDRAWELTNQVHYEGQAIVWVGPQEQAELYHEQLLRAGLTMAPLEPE

binding preference across four peptides that vary only by their N-terminal amino acid: strong preference for binding leucine
B1: T. elongatus ClpS2: wild-type ClpS protein, N-End Rule Pathway adaptor protein, parent of the engineered variants (protein, listed as Thermosynechococcus elongatus)
chain: ASVVPQEGQQVTRKHYPNYKVIVLNDDFNTFRHVAACLMKYIPNMTSDRAWELTNQVHYEGQAIVWVGPQEQAELYHEQLLRAGLTMAPLEPEGS
